Source: patent US20240390468A1, “SURVIVIN AND MAGE-A9 DUAL-TARGETED IMMUNOTHERAPY” (IMMUNOVACCINE TECHNOLOGIES INC., priority 2022, published 2024)

System: splenocytes of A2/DR1 mice
Assay: IFN-γ ELISA after stimulation of spleen cells with peptides
Format: cell-based
Description: FIG. 25 depicts cytokine response upon stimulation with reactive HLA-A2 MAGE-A9 peptides. Groups of three A2/DR1 mice were either not immunized (naive mice) or immunized twice with a pool of four reactive peptides in CTL assays (M9-A2-24; M9-A2-111; M9-A2-223; M9-A2-270) or with adjuvants only, as control. Mice were sacrificed after 28 days and spleens were collected for isolation of splenocytes. Splenocytes were restimulated for 72 h with either individual peptides or the peptide pool. Supernatant was collected and assayed by ELISA for secretion of murine INF-7. Bars represent mean of triplicate plus or minus standard deviation (SD). Tukey's multiple comparisons test was used to determine adjusted p values. *=p<0.05, **=p<0.01, ***=p<0.001, ****=p<0.0001.
INF-γ secreted after stimulation of spleen cells with the four peptides were tested by ELISA.
Supernatants from cultures of whole splenocytes stimulated with the irradiated splenocytes loaded with the peptides were collected after 72 hours of stimulation and the amounts of IFN-γ were estimated by sandwich ELISA using the mouse IFN-γ ELISA Max set Deluxe kit (BioLegend, San Diego, CA).

B1: recombinant MAGE-A9: his-tag MAGE-A9 full-length recombinant protein used as immunogen admixed with poly(I:C) (protein, UniProt P43362 1-315, looked up)
chain: MSLEQRSPHCKPDEDLEAQGEDLGLMGAQEPTGEEEETTSSSDSKEEEVSAAGSSSPPQSPQGGASSSISVYYTLWSQFDEGSSSQEEEEPSSSVDPAQLEFMFQEALKLKVAELVHFLLHKYRVKEPVTKAEMLESVIKNYKRYFPVIFGKASEFMQVIFGTDVKEVDPAGHSYILVTALGLSCDSMLGDGHSMPKAALLIIVLGVILTKDNCAPEEVIWEALSVMGVYVGKEHMFYGEPRKLLTQDWVQENYLEYRQVPGSDPAHYEFLWGSKAHAETSYEKVINYLVMLNAREPICYPSLYEEVLGEEQEGV
modifications: full-length His tag
  subtype of T cells induced after immunization: Th1 subtype
